Data from patent US12723255B2, “Herbicide tolerance genes and methods of use thereof” (priority 2014, dated 2026).

B1: MON-HT6: engineered oxygenase protein, amino acid sequence SEQ ID NO:31 (protein)
chain: MHAALSPLSQKYRFIDVQPLTGVLGAEITGVTLREPLDDNTWNEILDAFHTYQVIYFPGQAITNEQHIAFSRRFGPVDPVPLLKSIEGYPEVQMIRREANESGRVIGDDWHTDSTFLDAPPAAVVMYAREVPPYGGDTGFLSMYSAWDTLSDTMKATIEGLNVVHSATRVFGSLYQAQNRRFSNTSVKVMDVDAGDRETVHPLVVSHPVTGRRALYCNQVYCQRIEGMTDAESKPLLQFLYEHATRFDFTCRVRWKKDQVLVWDNLCTMHRAVPDYAGKFRYLTRTTVAGDKPSR
B2: MON-HT5: engineered oxygenase protein, amino acid sequence SEQ ID NO:28 (protein)
chain: MHAALTPLTNKYRFIDVQPLTGVLGAEITGVDLREPLDDSTWNEILDAFHTYQVIYFPGQAITNEQHIAFSRRFGPVDPVPLLKSIEGYPEVQMIRREANESGRVIGDDWHTDSTFLDAPPAAVVMRAIEVPEYGGDTGFLSMYSAWETLSPTMQATIEGLNVVHSATKVFGSLYQATNWRFSNTSVKVMDVDAGDRETVHPLVVTHPVTGRRALYCNQVYCQKIQGMTDAESKSLLQFLYEHATKFDFTCRVRWKKDQVLVWDNLCTMHRAVPDYAGKFRYLTRTTVAGDKPSR

Columns and labels:
[1] = kinetic analysis, non-endpoint assay at 23° C.; format: biochemical; details: standard error in parenthetical; for Vmax Quizalofop / Km: 23° C., purified His-tagged protein; for Km: read-out: Km Quizalofop; for Km 2,4-D / Vmax 2,4-D: NDB = activity not robust enough for kinetic characterization
Method in brief: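 Purified C-terminal 6-His-tagged recombinant enzymes expressed in bacteria; quizalofop-P or 2,4-D as substrate. Vmax reported as specific activity (umol herbicide product mg enzyme-1 min-1) and Km as mM herbicide substrate, with standard error.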

F1 hybrid maize plants [2] = test: efficacy field trial with segregating F1 hybrid plants; format: in vivo; details: CTP A; for % Injury from V4 2,4-D / % Injury from V8 2,4-D: 2,4-D amine 2× at VE-V2 (plus quizalofop-P 0.5×), V4, V8; for % Injury from V4 Quizalofop / % Injury from V8 Quizalofop: quizalofop-P 2× at VE-V2, V4, V8
Method in brief: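 Field plots of segregating F1 hybrids (LH244 transformants crossed with MON89034) received either quizalofop-P 0.16 lb ai/acre + 0.25% NIS at VE-V2, V4 and V8, or 2,4-D amine 2 lb ae/acre (+ quizalofop-P 0.04 lb ai/acre at VE-V2) + NIS at VE-V2, V4, V8. Crop injury visually rated 0–100, 10–14 days after application.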

F1 hybrid maize plants [3] = test: efficacy field trial for quizalofop-P tolerance and clethodim sensitivity; format: in vivo; details: scale 0 to 100; for average injury rating, V4 Growth Stage, 4x Quizalofop / average injury rating, V8 Growth Stage, 4x Quizalofop: 0.32 lb ai/acre at VE-V2, V4, V8; for average injury rating, V4 Growth Stage, 4x Quizalofop / average injury rating, V8 Growth Stage, 4x Quizalofop / average injury rating, V4 Growth Stage, 8x Quizalofop / average injury rating, V8 Growth Stage, 8x Quizalofop / average injury rating, V4 Growth Stage, 16x Quizalofop / average injury rating, V8 Growth Stage, 16x Quizalofop: with CTP unless label says no CTP; for average injury rating, V4 Growth Stage, 8x Quizalofop / average injury rating, V8 Growth Stage, 8x Quizalofop: 0.64 lb ai/acre at VE-V2, V4, V8; for average injury rating, V4 Growth Stage, 16x Quizalofop / average injury rating, V8 Growth Stage, 16x Quizalofop: 1.28 lb ai/acre at VE-V2, V4, V8; for average injury rating, V8 Growth Stage, 1x Clethodim: clethodim 0.25 lb ai/acre at V8, volunteer control
Description: Separate trait efficacy field trials for quizalofop-P and 2,4-D were conducted at two locations cach with F1 hybrid transgenic plants produced by crossing an inbred plant containing maize event MON89034 with an R1 plant containing MON-HT55 (with a CTP), MON-HTI (with or without a CTP), MON-HT2 (with or without a CTP), MON-HT3 (with a CTP), MON-HT4 (with a CTP), MON-HT5 (with a CTP), MON-HT6 (with a CTP), or MON-HT7 (with a CTP). Transgenic F1 hybrid plants containing maize events NK603×MON89034 were used for comparison as a control.
In the efficacy field trial for quizalofop-P tolerance and clethodim sensitivity, one of four herbicide treatments was used: (1) quizalofop-P (Assure II) at 0.32 lb ai/acre (4×) plus 0.25% v/v non-ionic surfactant (NIS) applied at VE-V2 growth stage followed by the same at V4 growth stage followed by the same at V8 growth stage; (2) quizalofop-P at 0.64 lb ai/acre (8×) plus 0.25% v/v NIS applied at VE to V2 growth stage followed by the same at V4 growth stage followed by the same at V8 growth stage; (3) quizalofop-P at 1.28 lb ai/acre (16×) plus 0.25% v/v NIS applied at VE to V2 growth stage followed by the same at V4 growth stage followed by the same at V8growth stage; or (4) clethodim at 0.25 lb ai/acre (1×) plus 0.25% v/v NIS applied at V8 growth stage. Plots were visually rated 10-14 days after application for crop injury on a scale of 0 to 100with “0” being none and “100” being complete crop destruction. Tables 14 and 15 show the average injury ratings after herbicide application at V4 or V8 growth stage, respectively.

Row | Molecule | Vmax Quizalofop [1] | Km [1] | Km 2,4-D [1] | Vmax 2,4-D [1] | % Injury from V4 2,4-D (F1 hybrid maize plants [2]) | % Injury from V8 2,4-D (F1 hybrid maize plants [2]) | % Injury from V4 Quizalofop (F1 hybrid maize plants [2]) | % Injury from V8 Quizalofop (F1 hybrid maize plants [2]) | average injury rating, V4 Growth Stage, 4x Quizalofop (F1 hybrid maize plants [3]) | average injury rating, V8 Growth Stage, 4x Quizalofop (F1 hybrid maize plants [3]) | average injury rating, V4 Growth Stage, 8x Quizalofop (F1 hybrid maize plants [3]) | average injury rating, V8 Growth Stage, 8x Quizalofop (F1 hybrid maize plants [3]) | average injury rating, V4 Growth Stage, 16x Quizalofop (F1 hybrid maize plants [3]) | average injury rating, V8 Growth Stage, 16x Quizalofop (F1 hybrid maize plants [3]) | average injury rating, V8 Growth Stage, 1x Clethodim (F1 hybrid maize plants [3])
1 | B1 | 0.39 (−0.03) umol herbicide product mg enzyme-1 min-1 | 100 µM | NDB | NDB | 27% | 12.7% | 8% | 1.7% | 0.0 | 1.3 | 1.3 | 2.0 | 2.8 | 5.0 | 93.3
2 | B2 | 0.57 (−0.03) umol herbicide product mg enzyme-1 min-1 | 170 µM | NDB | NDB | 27.2% | 17.4% | 6.8% | 1.7% | 1.3 | 2.5 | 4.5 | 0.0 | 4.5 | 8.0 | 92.0
